Sequences and labels used below:
B1: Glycogen synthase kinase-3 alpha (Homo sapiens), P49840 (parent)
chain: MSGGGPSGGGPGGSGRARTSSFAEPGGGGGGGGGGPGGSASGPGGTGGGKASVGAMGGGVGASSSGGGPGGSGGGGSGGPGAGTSFPPPGVKLGRDSGKVTTVVATLGQGPERSQEVAYTDIKVIGNGSFGVVYQARLAETRELVAIKKVLQDKRFKNRELQIMRKLDHCNIVRLRYFFYSSGEKKDELYLNLVLEYVPETVYRVARHFTKAKLTIPILYVKVYMYQLFRSLAYIHSQGVCHRDIKPQNLLVDPDTAVLKLCDFGSAKQLVRGEPNVSYICSRYYRAPELIFGATDYTSSIDVWSAGCVLAELLLGQPIFPGDSGVDQLVEIIKVLGTPTREQIREMNPNYTEFKFPQIKAHPWTKVFKSRTPPEAIALCSSLLEYTPSSRLSPLEACAHSFFDELRCLGTQLPNNRPLPPLFNFSAGELSIQPSLNAILIPPHLRSPAGTTTLTPSSQALTETPTSSDWQSTDATPTLTNSS
partner: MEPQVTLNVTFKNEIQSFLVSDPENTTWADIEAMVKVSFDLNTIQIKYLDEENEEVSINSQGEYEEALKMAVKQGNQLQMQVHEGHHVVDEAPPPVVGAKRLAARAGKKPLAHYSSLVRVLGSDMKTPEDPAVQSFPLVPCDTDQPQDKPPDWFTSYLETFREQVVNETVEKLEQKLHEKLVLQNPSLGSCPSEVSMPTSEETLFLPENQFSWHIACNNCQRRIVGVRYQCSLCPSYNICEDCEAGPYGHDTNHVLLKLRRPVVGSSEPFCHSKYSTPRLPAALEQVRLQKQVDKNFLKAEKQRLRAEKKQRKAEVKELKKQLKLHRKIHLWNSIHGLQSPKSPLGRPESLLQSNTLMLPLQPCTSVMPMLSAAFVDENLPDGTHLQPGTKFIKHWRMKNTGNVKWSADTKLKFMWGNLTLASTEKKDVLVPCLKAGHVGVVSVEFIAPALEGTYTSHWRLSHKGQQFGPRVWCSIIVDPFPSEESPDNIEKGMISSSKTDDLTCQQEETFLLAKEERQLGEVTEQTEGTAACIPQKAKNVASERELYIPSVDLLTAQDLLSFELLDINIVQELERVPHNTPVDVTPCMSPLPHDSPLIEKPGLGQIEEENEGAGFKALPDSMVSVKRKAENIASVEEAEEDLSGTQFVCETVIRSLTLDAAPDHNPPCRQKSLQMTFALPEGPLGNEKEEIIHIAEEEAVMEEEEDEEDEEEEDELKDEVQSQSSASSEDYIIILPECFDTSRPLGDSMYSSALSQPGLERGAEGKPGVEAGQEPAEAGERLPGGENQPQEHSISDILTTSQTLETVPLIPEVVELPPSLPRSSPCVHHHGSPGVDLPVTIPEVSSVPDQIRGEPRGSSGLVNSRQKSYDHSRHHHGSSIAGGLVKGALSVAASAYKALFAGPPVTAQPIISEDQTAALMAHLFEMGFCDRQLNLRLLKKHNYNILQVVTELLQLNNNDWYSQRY
B2: Next to BRCA1 gene 1 protein (Homo sapiens), Q14596 (parent)
chain: B1 partner

The first assay covers variants of B1. Particulars: with nbr1_human NBR1, Q14596.
On to K148A, for which the “effect of a mutation on the interaction” value is listed as “disrupting interaction strength”.
S21A: the “effect of a mutation on the interaction” value is reported as “with no effect”.

The next assay covers variants of B2. Particulars: with gsk3a_human GSK3A.
In the case of S590A, the “effect of a mutation on the interaction” value is “with no effect”.
As to T581A, the “effect of a mutation on the interaction” value is “decreasing interaction strength”.
As to T581A;T586A;S590A, the “effect of a mutation on the interaction” value is “decreasing interaction strength”.
As for T586A;S590A, the “effect of a mutation on the interaction” value is “with no effect”.
T586A: the “effect of a mutation on the interaction” value is “with no effect”.

The variants in a further assay derive from B2. As to conditions: with ubc_human UBC.
T586E;S590E: the “effect of a mutation on the interaction” value was “with no effect”.
As for T586A;S590A, the “effect of a mutation on the interaction” value is listed as “with no effect”.

The variants in another assay derive from B2. As to conditions: with mlp3b_human MAP1LC3B.
On to T586E;S590E, for which the “effect of a mutation on the interaction” value is listed as “with no effect”.
Turning to T586A;S590A, the “effect of a mutation on the interaction” value is reported as “with no effect”.

The variants in another assay derive from B2. As to conditions: with gbrap_human GABARAP.
For the variant T586E;S590E, the “effect of a mutation on the interaction” value is “with no effect”.
As to T586A;S590A, the “effect of a mutation on the interaction” value was “with no effect”.

In another assay the parent is B2. As to conditions: with mlp3b_mouse Map1lc3b.
As for T586E;S590E, the “effect of a mutation on the interaction” value is “with no effect”.
For T586A;S590A, the “effect of a mutation on the interaction” value is “with no effect”.

The variants in the next assay derive from B2. As to conditions: with gsk3b_human GSK3B.
For the variant T581A, the “effect of a mutation on the interaction” value is reported as “with no effect”.
Same read-out and setting: in the case of T581A;T586A;S590A it was “disrupting interaction strength”.

These data come from IntAct's records for PubMed 24879152.
